Measurements reported in patent US20140223606, “COMPOSITIONS AND METHODS COMPRISING SEQUENCES HAVING MEGANUCLEASE ACTIVITY” (PIONEER HI BRED INTERNATIONAL INC, published 2014).

T1: MHP14(L14-03) (artificial)
T1 chain: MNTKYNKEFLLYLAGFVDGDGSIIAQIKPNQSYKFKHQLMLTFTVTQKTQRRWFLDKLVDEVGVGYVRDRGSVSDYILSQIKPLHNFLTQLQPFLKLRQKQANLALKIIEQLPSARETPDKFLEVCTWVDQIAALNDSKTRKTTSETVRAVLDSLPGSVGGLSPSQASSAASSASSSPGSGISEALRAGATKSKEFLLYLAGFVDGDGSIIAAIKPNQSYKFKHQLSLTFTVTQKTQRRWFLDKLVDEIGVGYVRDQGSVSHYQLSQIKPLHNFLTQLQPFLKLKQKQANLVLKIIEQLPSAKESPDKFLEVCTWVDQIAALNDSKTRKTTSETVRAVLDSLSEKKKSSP

T2: ZM6.3(G1) (artificial)
T2 chain: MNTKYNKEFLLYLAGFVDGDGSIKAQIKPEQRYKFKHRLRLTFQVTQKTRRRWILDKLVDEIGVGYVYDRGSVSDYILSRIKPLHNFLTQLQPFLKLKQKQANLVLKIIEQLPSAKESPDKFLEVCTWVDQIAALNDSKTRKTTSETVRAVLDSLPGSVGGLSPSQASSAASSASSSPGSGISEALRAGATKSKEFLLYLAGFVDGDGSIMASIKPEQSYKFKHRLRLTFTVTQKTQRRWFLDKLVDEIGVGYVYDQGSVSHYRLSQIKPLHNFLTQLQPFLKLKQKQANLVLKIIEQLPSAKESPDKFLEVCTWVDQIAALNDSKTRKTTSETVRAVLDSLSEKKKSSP

T3: ZM6.3(H5) (artificial)
T3 chain: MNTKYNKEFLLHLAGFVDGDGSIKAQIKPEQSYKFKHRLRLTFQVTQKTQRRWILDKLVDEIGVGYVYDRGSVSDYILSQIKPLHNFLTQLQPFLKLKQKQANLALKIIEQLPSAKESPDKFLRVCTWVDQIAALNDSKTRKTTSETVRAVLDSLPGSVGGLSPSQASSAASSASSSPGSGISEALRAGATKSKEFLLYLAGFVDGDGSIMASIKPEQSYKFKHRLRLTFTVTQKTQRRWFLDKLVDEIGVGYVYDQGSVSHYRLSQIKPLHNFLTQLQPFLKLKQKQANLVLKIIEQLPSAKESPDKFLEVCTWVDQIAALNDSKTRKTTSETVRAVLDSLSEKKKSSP

T4: ZM6.3(H6) (artificial)
T4 chain: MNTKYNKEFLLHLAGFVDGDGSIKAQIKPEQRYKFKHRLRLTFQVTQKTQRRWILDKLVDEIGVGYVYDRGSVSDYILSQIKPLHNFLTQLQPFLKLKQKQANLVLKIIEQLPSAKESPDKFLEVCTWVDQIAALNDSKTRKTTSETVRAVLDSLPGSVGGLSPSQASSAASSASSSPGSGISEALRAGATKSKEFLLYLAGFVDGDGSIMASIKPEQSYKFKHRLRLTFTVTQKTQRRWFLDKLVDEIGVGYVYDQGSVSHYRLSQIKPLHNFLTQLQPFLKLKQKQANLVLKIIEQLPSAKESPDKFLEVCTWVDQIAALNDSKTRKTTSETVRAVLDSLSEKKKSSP

T5: ZM6.3(G6) (artificial)
T5 chain: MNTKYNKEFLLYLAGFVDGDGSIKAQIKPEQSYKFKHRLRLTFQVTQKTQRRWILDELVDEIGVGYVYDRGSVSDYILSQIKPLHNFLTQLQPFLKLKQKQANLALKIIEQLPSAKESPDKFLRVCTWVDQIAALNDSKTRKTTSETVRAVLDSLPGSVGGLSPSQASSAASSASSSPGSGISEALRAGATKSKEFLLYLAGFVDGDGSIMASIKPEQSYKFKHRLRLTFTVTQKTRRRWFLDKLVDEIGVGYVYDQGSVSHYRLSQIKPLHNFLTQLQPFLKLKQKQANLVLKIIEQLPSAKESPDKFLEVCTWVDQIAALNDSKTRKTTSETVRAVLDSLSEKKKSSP


How the values were obtained:
Conditions in all cases: tags: NLS, 6xHis
MHP14(L14-03) = biological target: T1, MHP14(L14-03); test: cell_activity; yeast 37 C; 28 C: 0
Method: (§1) A 3 mL culture of selective media (MP Biomedical) was inoculated with a single colony of the yeast screening strain and grown at 30° C. overnight. On the following day, a 50 ml YPD culture (MP Biomedical) was started with 2 ml of the overnight culture and grown at 30° C. overnight. On the following day, the cells were harvested by centrifugation at 4000 rpm. The cells were resuspended in 100 ml ice cold water and centrifuged again. The cells were then washed in 1.2 M sorbitol, followed by treatment with 2 ml of 10 mM Tris pH 8.0, 1 mM EDTA, 100 mM Lithium acetate, 10 mM DTT, 0.6M sorbitol for 30 minutes at 30° C. with shaking. The cells were recovered by centrifugation, washed in 40 ml 1.2M sorbitol and finally resuspended in 250 microliters of 1.2M sorbitol. 50 microliter aliquots were transferred to test tubes on ice. Up to 5 microliters of DNA (100-500 nanograms) were added. The suspension was transferred to a 0.2 cm electroporation cuvette, on ice. Electroporation was performed with a pulse charge at 1.5 kV, 200 ohms, 25 microF (pulse time of 5 milliseconds). 1 mL YPD media (MP Biomedical) was added and the cells were allowed to recover at 30° C. for 1-2 hr. The cells were centrifuged, resuspended in 100 uL 1M sorbitol and plated on selective media lacking leucine and containing 2% galactose. The resulting yeast colonies were incubated at various temperatures ranging from 22 to 37 degrees Celsius for 7-10 days. I-CreI and meganucleases derived from it have maximal activity at or above 37 degrees Celsius. Screening was performed at a range of temperatures from 22 to 37 degrees in order to observe increases in activity at lower temperatures which are relevant to certain biological systems (eg. plant cells, plant cell cultures, etc). At that time the red/white sectoring phenotype, indicative of meganuclease activity was observed. Colonies with increased white sectoring over the parental meganuclease (indicating colonies expressing a meganuclease with increased meganuclease activity), also referred to as “hits” and sometimes completely white, were isolated for further analysis.
A total of 15 MHP14 variants with increased activity were confirmed in the yeast system (as described in Example 6). Increased activity was observed across a range of temperatures: 28 degrees Celsius, 34 degrees Celsius and 37 degrees Celsius, as shown in Table 11.

ZM6.3(G1) = biological target: T2, ZM6.3(G1); test: cell_activity; yeast 37 C; 28 C: 4
Method: as §1
(§2) A total of 15 Zm6.3 variants with increased activity were confirmed in the yeast system (as described in Example 6). Increased activity was observed across a range of temperatures: 28 degrees Celsius, 30 degrees Celsius and 37 degrees Celsius, as shown in Table 15.

ZM6.3(H5) = biological target: T3, ZM6.3(H5); test: cell_activity; yeast 37 C; 28 C: 4
Method: as §1, §2

ZM6.3(H6) = biological target: T4, ZM6.3(H6); test: cell_activity; yeast 37 C; 28 C: 4
Method: as §1, §2

ZM6.3(G6) = biological target: T5, ZM6.3(G6); test: cell_activity; yeast 37 C; 28 C: 4
Method: as §1, §2

Row | Binder | activity (MHP14(L14-03)) [score 0-4] | activity (ZM6.3(G1)) [score 0-4] | activity (ZM6.3(H5)) [score 0-4] | activity (ZM6.3(H6)) [score 0-4] | activity (ZM6.3(G6)) [score 0-4]
1 | MHP14 recognition site (dsDNA) DNA 1: CAAACAGATTCACGTCAGATTT DNA 2: AAATCTGACGTGAATCTGTTTG | 3 | – | – | – | –
2 | ZM6.3 recognition site (dsDNA) DNA 1: CAGGCTCTCGTAAATGCGCCTG DNA 2: CAGGCGCATTTACGAGAGCCTG | – | 4 | 4 | 4 | 4
